Values belong to the binder of their own block, whether it stands above or below them.
T1: His6Sumo-MED25(407-680) (Arabidopsis, UniProt Q7XYY2 407-680)
T1 sequence (looked up): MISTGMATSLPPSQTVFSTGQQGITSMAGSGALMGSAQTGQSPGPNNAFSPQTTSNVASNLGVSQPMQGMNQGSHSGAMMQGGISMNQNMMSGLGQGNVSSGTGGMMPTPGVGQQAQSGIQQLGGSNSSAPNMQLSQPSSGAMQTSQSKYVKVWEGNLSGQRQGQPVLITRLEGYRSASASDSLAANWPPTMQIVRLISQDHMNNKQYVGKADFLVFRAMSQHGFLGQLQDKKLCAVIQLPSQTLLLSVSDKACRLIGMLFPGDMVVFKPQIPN

B1: His6Sumo-MED25(540-680) (domain or fragment, Arabidopsis, UniProt Q7XYY2 540-680, looked up)
chain: QLSQPSSGAMQTSQSKYVKVWEGNLSGQRQGQPVLITRLEGYRSASASDSLAANWPPTMQIVRLISQDHMNNKQYVGKADFLVFRAMSQHGFLGQLQDKKLCAVIQLPSQTLLLSVSDKACRLIGMLFPGDMVVFKPQIPN
B2: biotin-MYC3(44-238) (domain or fragment, Arabidopsis, UniProt Q9FIP9 44-238, looked up)
chain: QPQFNEDTLQQRLQALIESAGENWTYAIFWQISHDFDSSTGDNTVILGWGDGYYKGEEDKEKKKNNTNTAEQEHRKRVIRELNSLISGGIGVSDESNDEEVTDTEWFFLVSMTQSFVNGVGLPGESFLNSRVIWLSGSGALTGSGCERAGQGQIYGLKTMVCIATQNGVVELGSSEVISQSSDLMHKVNNLFNFN
modifications: biotin (site not stated)
B3: biotin-MYC3(5-242) (domain or fragment, Arabidopsis, UniProt Q9FIP9 5-242, looked up)
chain: TSSINFLTSDDDASAAAMEAFIGTNHHSSLFPPPPQQPPQPQFNEDTLQQRLQALIESAGENWTYAIFWQISHDFDSSTGDNTVILGWGDGYYKGEEDKEKKKNNTNTAEQEHRKRVIRELNSLISGGIGVSDESNDEEVTDTEWFFLVSMTQSFVNGVGLPGESFLNSRVIWLSGSGALTGSGCERAGQGQIYGLKTMVCIATQNGVVELGSSEVISQSSDLMHKVNNLFNFNNGGG
modifications: biotin (site not stated)

Columns and labels:
Test in all cases: AlphaScreen or HTRF
biotin-MYC3(44-238) [1] = molecular target: B2
biotin-MYC3(44-238) [2] = molecular target: B2; remark: listed apart in the source
biotin-MYC3(5-242) = molecular target: B3
His6Sumo-MED25(407-680) = molecular target: T1, His6Sumo-MED25(407-680)

Binder: B1
- binding result (biotin-MYC3(44-238) [1]): binds

- IC50 (biotin-MYC3(44-238) [2]): ~420 nM
- IC50 (biotin-MYC3(5-242)): ~490 nM
Binder: SVPQARKASLARFLEKRKERLM (peptide, UniProt Q8W4J8 218-239, looked up) [Jas22^JAZ9 peptide]

Binder: B2
- binding result (His6Sumo-MED25(407-680)): binds

Binder: B3
- binding result (His6Sumo-MED25(407-680)): binds

From paper PMC4567411 (Nature, 2015)
